According to PMC10681739, “High-throughput data and modeling reveal insights into the mechanisms of cooperative DNA-binding by transcription factor proteins”:

T1: ETS1 x2 (Homo sapiens, UniProt P14921)
T1 sequence: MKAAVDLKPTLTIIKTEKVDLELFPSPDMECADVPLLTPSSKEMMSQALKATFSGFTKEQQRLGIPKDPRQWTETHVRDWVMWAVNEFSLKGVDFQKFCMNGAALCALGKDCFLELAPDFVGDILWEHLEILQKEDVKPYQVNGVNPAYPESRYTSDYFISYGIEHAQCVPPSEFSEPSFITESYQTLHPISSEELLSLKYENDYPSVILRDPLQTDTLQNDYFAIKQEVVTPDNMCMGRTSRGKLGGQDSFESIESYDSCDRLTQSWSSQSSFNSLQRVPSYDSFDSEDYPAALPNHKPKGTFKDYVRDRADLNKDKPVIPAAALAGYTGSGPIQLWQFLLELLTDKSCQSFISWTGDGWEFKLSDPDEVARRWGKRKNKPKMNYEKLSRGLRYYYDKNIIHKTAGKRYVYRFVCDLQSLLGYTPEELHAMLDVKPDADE


Biological target: T1, ETS1 x2
Test: gcPBM; 10 nM ETS1
Settings: tags: N-terminal GST (pDEST15), kept (PMC6008103); chain copies: 2; label: surface-attached array probe

Binder | binding signal
Table S4 A row 743 (dsDNA) DNA 1: CCCCACTTCCTGTTGACACAATAGGCAGGATATTAA DNA 2: TTAATATCCTGCCTATTGTGTCAACAGGAAGTGGGG | 67800 PBM fluorescence, median of replicate spots
Table S4 A row 2202 (dsDNA) DNA 1: AGGGCGATTTCCGCTTTGTCGCGTTTCCTCAAGGCT DNA 2: AGCCTTGAGGAAACGCGACAAAGCGGAAATCGCCCT | 37800 PBM fluorescence, median of replicate spots
Table S4 A row 2195 (dsDNA) DNA 1: TGAAGAAGCACCGGAAATGCTTCCGATCGCTTCATA DNA 2: TATGAAGCGATCGGAAGCATTTCCGGTGCTTCTTCA | 40400 PBM fluorescence, median of replicate spots
Table S4 A row 305 (dsDNA) DNA 1: GCCGCTTCCTGTTCAGAGGACAGACAGCTTCCTGAC DNA 2: GTCAGGAAGCTGTCTGTCCTCTGAACAGGAAGCGGC | 61600 PBM fluorescence, median of replicate spots
Table S4 A row 2460 (dsDNA) DNA 1: GGCTGGAAGGCACTTCCGGCGGAAGTTAGAGCTGGG DNA 2: CCCAGCTCTAACTTCCGCCGGAAGTGCCTTCCAGCC | 42900 PBM fluorescence, median of replicate spots
Table S4 A row 1254 (dsDNA) DNA 1: TGAAAATGAGCATTTCCTGTTTCCTCAGGCATTTCT DNA 2: AGAAATGCCTGAGGAAACAGGAAATGCTCATTTTCA | 31500 PBM fluorescence, median of replicate spots
Table S4 A row 2168 (dsDNA) DNA 1: CCGGCCTTCCACTTCCGGCGCGGAAGTTGGCGTCAC DNA 2: GTGACGCCAACTTCCGCGCCGGAAGTGGAAGGCCGG | 44800 PBM fluorescence, median of replicate spots
Table S4 A row 1679 (dsDNA) DNA 1: AGTGTTCACTTCCTGCCCTCCCATTTCCTGAAGGTC DNA 2: GACCTTCAGGAAATGGGAGGGCAGGAAGTGAACACT | 35600 PBM fluorescence, median of replicate spots
Table S4 A row 2224 (dsDNA) DNA 1: GCACTTCCGCCAGAAGCCGGGTGTGTCCTTCCGGGC DNA 2: GCCCGGAAGGACACACCCGGCTTCTGGCGGAAGTGC | 49200 PBM fluorescence, median of replicate spots
Table S4 A row 1194 (dsDNA) DNA 1: TCGGAACAGTGACTTCCGGCGGAAGAAGAAGCCGGT DNA 2: ACCGGCTTCTTCTTCCGCCGGAAGTCACTGTTCCGA | 32500 PBM fluorescence, median of replicate spots
